Consider 2 substances from publication PMC4355161.

Like-named read-outs stand apart in the source and are kept apart here.

In assay [1] the target is 30/30 nucleosomes labeled with Cy3 on H4 A15C (UniProt P62799). As to the kind of experiment: other fluorescence titration.
Assay [2] deals with 0/20 Cy3 DNA(+20) nucleosomes. As to the kind of experiment: FRET or BRET. For orientation: BRET reads energy transfer from a luciferase to a nearby fluorophore.
The target in assay [3] is 0/20 Cy3 DNA(−25) nucleosomes. Nature of the assay: FRET or BRET.
The target of assay [4] is 0/20 H2A T11C-Cy3 nucleosomes (UniProt P06897). Nature of the assay: FRET or BRET.
Assay [5] deals with 0/20 Cy3 DNA(+20) nucleosomes. Nature of the assay: FRET or BRET. This is another data set of the same source.
Assay [6] addresses 0/20 Cy3 DNA(−25) nucleosomes. As to the kind of experiment: FRET or BRET. The source holds these as a separate data set.
Assay [7] addresses 0/20 H2A T11C-Cy3 nucleosomes (UniProt P06897). Nature of the assay: FRET or BRET. The source holds these as a separate data set.

In assay [1], “wild type SNF2h (from UniProt O60264 1-1052) (enzyme)” showed a fold preference over core nucleosomes of 4.9 fold and a fold tighter binding than to core nucleosomes of 2.1 fold.

Turning to “SNF2h A930C-Cy5 (from UniProt O60264 1-729; O60264 730-1052) (enzyme)”, the FRET ratio in assay [2] stood at 0.51; in assay [3], 0.4; in assay [4], 0.39; in assay [5], 0.34; in assay [6] it was 0.49; in assay [7], 0.56.
